Data set [1] deals with T1, ManR (VC1825) (Vibrio cholerae, UniProt Q9KR22).
T1 construct: gene VC_1825
The note with it: 50 mM HEPES-NaOH pH 8.0, 500 mM NaCl, 10% glycerol, 1 mM TCEP, 0.5 mg/ml BSA, 0.05% Tween 20, 23 °C; NT-647-labelled protein 2 nM; effector (co-activator).

Data set [2] deals with ManR (VC1825), AraC-type transcriptional regulator of Vibrio cholerae (Vibrio cholerae N16961). The data set can be described thus: not stated; Supplementary Fig. 3; method and conditions not shown.
Data set [3] addresses ManR (VC1825) (Vibrio cholerae N16961, UniProt Q9KR22 1-279). Description: EMSA; one complex. The note with it: protein: recombinant; chain copies: 2; blunt. In general terms: A gel shift assay detects complexes by their altered migration in electrophoresis.

Turning to `O=P(O)(O)OCC1(O)O[C@H](CO)[C@@H](O)[C@@H]1O` (some centres unmarked) [F1P, fructose 1-phosphate], the Kd (usually the concentration at which binding is half-saturated) in data set [1] is approximately 411 µM.

Take `O=P(O)(O)OC[C@H]1OC(O)[C@@H](O)[C@@H](O)[C@@H]1O` (some centres unmarked) [M6P, mannose 6-phosphate]: the Kd in data set [1] is approximately 0.152 µM. On to “ManR (VC1825), AraC-type transcriptional regulator of Vibrio cholerae (natural protein)”, for which the stoichiometry N (as a rule, the number of molecules, sites or subunits per partner or assembly) in data set [2] was determined as 2.

B1: MB2 WT (dsDNA)
DNA 1: CAAACCAATAGAGTTACAATCCTCTAGTGAATGTTTTAT
DNA 2: ATAAAACATTCACTAGAGGATTGTAACTCTATTGGTTTG
In the case of B1, the binding result in data set [3] is given as “binds”.

B2: MB1 WT (dsDNA)
DNA 1: AGACAGAATGATACAATAATCCAGTTTTAACACCAATTC
DNA 2: GAATTGGTGTTAAAACTGGATTATTGTATCATTCTGTCT
B2: the binding result in data set [3] was “binds”.

The values above are taken from article PMC9392796, “A mannose-sensing AraC-type transcriptional activator regulates cell–cell aggregation of Vibrio cholerae” (NPJ Biofilms and Microbiomes, 2022).
